Laboratory results taken from patent US20260042834A1, “ANTI-CORTICOTROPIN-RELEASING HORMONE ANTIBODIES AND POLYCYSTIC OVARY SYNDROME” (HBM ALPHA THERAPEUTICS, INC., priority 2022, published 2026).

T1: biotinylated CRH (Homo sapiens, UniProt P06850)
T1 construct: purchased GL Biochem 784751
T1 sequence (P06850 154-194): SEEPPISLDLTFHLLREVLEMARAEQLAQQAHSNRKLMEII


Key:
[1] = tested on: constitutively high plasma ACTH in Mrap1 KO mice; assay: Mrap1 KO mice constitutively high ACTH model; assay type: in vivo, mouse; details: for plasma ACTH concentrations in Mrap1 KO mice: single dose 20 mg/kg
Method: 8-10 week old wildtype female C57BL/6 mice were obtained from Charles River Laboratories. Mrap1 KO mice were obtained from Queen Mary University of London, UK. SSR125543A, a small molecule CRHR1 antagonist, was obtained from Axon Medchem (Cat #Axon 1799). Mouse Corticosterone (55-Corms-E01) and adrenocorticotropic hormone (ACTH) ELISA kits (21-ACTHU-E01) were obtained from ALPCO, USA. All procedures were carried out in accordance with the Guide for the Care and Use of Laboratory Animals of the National Institutes of Health. Protocols were approved by Charles River Laboratories Institutional Animal Care and Use Committee (IACUC).
To generate Mrap1 KO mice, Mrap1−/− male mice were bred with Mrap1+/− female mice. Corticosterone hormone replacement was performed by administering 50 μg/ml in drinking water to breeder cages when female mice were pregnant and their pregnancies palpable (approximately embryonic day 10). Drinking water was changed weekly, and treatment was stopped at weaning. Mice were uniquely identified with ear tags at the time of tail clipping to match future genotype with each mouse. DNA was extracted from tail tissue and used to genotype mice.
[…] On day 2 or 3, 14 and 28, 200 μl of blood was collected in EDTA tubes from the submandibular vein of each mouse. Plasma was separated using a refrigerated centrifuge (4° C. at 500×g for 10 min) and snap-frozen in dry ice for subsequent ACTH ELISA measurement.

mouse CRHR2 = assay: CRH-induced luciferase reporter blocking assay, CHO-CRE-mCRHR2 cells; assay type: cell-based; details: CHO-CRE-mCRHR2 cells, 5 nM CRH
Procedure, shortened: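 CHO-CRE cells stably expressing mouse CRHR2 were seeded overnight, then given serially diluted antibodies (8 points, 1:4) together with CRH at 5 nM final. After 4–6 h at 37 °C, CRE-driven luciferase was read by Bio-Glo luminescence.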

human CRHR2 = assay: CRH-induced luciferase reporter blocking assay, CHO-CRE-hCRHR2 cells; assay type: cell-based; details: CHO-CRE-hCRHR2 cells, 0.1 nM CRH
Procedure, shortened: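 CHO-CRE reporter cells stably expressing mouse or human CRHR2 were treated with serially diluted antibodies (8 points, 1:4) plus CRH at final 5 nM (mCRHR2) or 0.1 nM (hCRHR2), 4-6 hours at 37° C. CRE-driven luciferase read by luminescence after 10 min with detection reagent.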

biotinylated CRH = biological target: T1, biotinylated CRH; assay: Affinity determination with Octet; assay type: binding
Procedure, shortened: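 Biolayer interferometry: 30 nM biotinylated CRH loaded onto streptavidin sensors, 2-fold antibody dilutions as analyte in PBS kinetics buffer. Association 180 s, dissociation 800 s, glycine pH 1.5 regeneration; double-referenced data fitted for affinity.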

Row | IC50 (mouse CRHR2) | IC50 (human CRHR2) | kdis (biotinylated CRH) | kon (biotinylated CRH) | Molecule | inhibition of ACTH versus SSR125543A ([1]; Mrap1 KO mice) | efficacy versus SSR125543A, ACTH levels ([1]; Mrap1 KO mice, day 2 and day 14, figure legend, doses not given) | efficacy in reducing plasma ACTH levels versus SSR125543A at 30 mg/kg ([1]; Mrap1 KO mice, mAb 5 mg/kg) | efficacy in reducing plasma ACTH levels versus SSR125543A at 30 mg/kg ([1]; Mrap1 KO mice, mAb 10 mg/kg) | efficacy in reducing plasma ACTH levels versus SSR125543A at 30 mg/kg ([1]; Mrap1 KO mice, mAb 20 mg/kg) | plasma ACTH concentrations in Mrap1 KO mice [1]
1 | 2.03 nM | 2.01 nM | <1e-07 s⁻¹ | 606000 M⁻¹ s⁻¹ | PR302334-24: humanized variant of Series 9 mAb PR302334; VH SEQ ID NO: 275, VL SEQ ID NO: 328 (antibody, V domains shown, PR302334-16 VH, PR302334-24 VH, PR302334-25 VH; PR302334-10 VL, PR302334-24 VL, PR302334-26 VL, PR302334-4 VL) VH: EVQLVESGGGLVKPGGSLRLSCAASGFTFSTYAMSWVRQAPGKGLEWVASIRSGGTTYYPDSVKGRFTISRDNAKNSLYLQMNSLRAEDTAVYYCTRGIDWGQGTTVTVSS VL: DIVMTQSPDSLAVSLGERATINCKASQSVNNDVAWYQQKPGQPPRLLIYYASNRYTGVPDRFSGSGSGTDFTLTISSLQAEDLAVYFCQQDYSSWTFGGGTKVEIK | more complete inhibition | superior efficacy | more efficacious | more efficacious | more efficacious | significantly reduced
2 | 1.47 nM | 1.24 nM | <1e-07 s⁻¹ | 329000 M⁻¹ s⁻¹ | PR302334-26: humanized variant of Series 9 mAb PR302334; VH SEQ ID NO: 277, VL SEQ ID NO: 328 (antibody, V domains shown, PR302334-18 VH, PR302334-26 VH, PR302334-27 VH; PR302334-10 VL, PR302334-24 VL, PR302334-26 VL, PR302334-4 VL) VH: EVQLVESGGGLVQPGGSLRLSCAASGFTFSTYAMSWVRQAPGKGLEWVASIRSGGTTYYPDSVKGRFTISRDNSKNSLYLQMNSLRAEDTAVYYCTRGIDWGQGTTVTVSS VL: DIVMTQSPDSLAVSLGERATINCKASQSVNNDVAWYQQKPGQPPRLLIYYASNRYTGVPDRFSGSGSGTDFTLTISSLQAEDLAVYFCQQDYSSWTFGGGTKVEIK | – | – | – | – | – | markedly reduced
